Source: publication PMC11815680, “Receptor-independent regulation of Gα13 by alpha-1-antitrypsin C-terminal peptides” (The Journal of Biological Chemistry, 2024)

Columns and labels:
Conditions in all cases: both partners purified
[1] = biological target: T1, GST-p115-RH (human p115RhoGEF amino acid residues 1-252, N-terminal region including the RH domain) (human, UniProt Q92888 1-252); test: pull-down; GST-RH protein on glutathione-Sepharose 4B, untagged Gα13iN (2 μg) in buffer A (20 mM HEPES, 5 mM βME, 1 mM MgCl2, 100 mM NaCl, 10 μM GDP, 0.1% C12E10, pH 8.0) with AlF4^- (30 μM AlCl3, 5 mM MgCl2, 5 mM NaF), 60 min at 4 °C; blot with Gα13 antibodies
T1 construct: human p115RhoGEF, amino acid residues 1-252 (the results once say 1-246); also called p115-RhoGEF-RH; source: E. coli BL21[DE3], purified (glutathione-sepharose 4B, eluted with glutathione, dialysed)
T1 sequence (looked up): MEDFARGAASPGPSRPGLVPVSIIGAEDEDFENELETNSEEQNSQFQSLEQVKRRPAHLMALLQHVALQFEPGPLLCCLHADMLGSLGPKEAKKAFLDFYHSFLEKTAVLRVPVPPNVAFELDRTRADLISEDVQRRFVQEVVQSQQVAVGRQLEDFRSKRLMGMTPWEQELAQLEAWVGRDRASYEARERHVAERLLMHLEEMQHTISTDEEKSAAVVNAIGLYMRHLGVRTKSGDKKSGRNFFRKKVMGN

[2] = biological target: T2, GST-LARG-RH (human LARG amino acid residues 319-598) (human, UniProt Q9NZN5 319-598); test: pull-down; as a2 but buffer A with 10 μM GDP and mAAT-C_(3-16) added instead of AlF4^-
T2 construct: human LARG (leukemia-associated RhoGEF), amino acid residues 319-598; also called leukemia-associated RhoGEF RH; source: E. coli BL21[DE3], purified (glutathione-sepharose 4B, eluted with glutathione, dialysed)
T2 sequence (looked up): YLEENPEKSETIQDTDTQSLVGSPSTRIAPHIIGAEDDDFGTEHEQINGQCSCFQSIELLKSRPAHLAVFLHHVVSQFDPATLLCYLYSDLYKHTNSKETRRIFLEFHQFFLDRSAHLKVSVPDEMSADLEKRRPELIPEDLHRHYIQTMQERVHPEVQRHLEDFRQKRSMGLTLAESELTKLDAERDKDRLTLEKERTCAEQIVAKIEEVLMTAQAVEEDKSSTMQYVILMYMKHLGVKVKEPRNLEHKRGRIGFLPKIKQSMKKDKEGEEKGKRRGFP

[3] = biological target: T3, GST-p115-RH(42-252), the RGS box of p115-RhoGEF-RH which lacks the N-terminal extension (human, UniProt Q92888 42-252); test: pull-down; as a2 but buffer A with 10 μM GDP and mAAT-C_(1-17) added instead of AlF4^-
T3 construct: human p115RhoGEF, residues 42-252 (RGS box, lacks the N-terminal extension); also called p115-RhoGEF-RH domain (42–252); source: E. coli BL21[DE3], purified (glutathione-sepharose 4B, eluted with glutathione, dialysed)
T3 sequence (looked up): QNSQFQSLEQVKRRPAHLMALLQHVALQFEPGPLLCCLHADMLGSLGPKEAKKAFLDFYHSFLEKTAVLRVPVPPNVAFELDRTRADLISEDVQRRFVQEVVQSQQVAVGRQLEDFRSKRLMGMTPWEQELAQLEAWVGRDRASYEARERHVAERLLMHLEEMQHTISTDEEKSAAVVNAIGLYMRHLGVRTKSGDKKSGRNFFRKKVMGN

Measured: binding result

B1: untagged Gα13iN recombinant protein (GDP-bound) (other, rat | mouse, UniProt P10824 1-28, looked up)
chain: MGCTLSAEDKAAVERSKMIDRNLREDGERLVKILLLGAGESGKSTFLKQMRIIHGQDFDQRAREEFRPTIYSNVIKGMRVLVDAREKLHIPWGDNKNQLHGDKLMAFDTRAPMAAQGMVETRVFLQYLPAIRALWEDSGIQNAYDRRREFQLGESVKYFLDNLDKLGVPDYIPSQQDILLARRPTKGIHEYDFEIKNVPFKMVDVGGQRSERKRWFECFDSVTSILFLVSSSEFDQVLMEDRQTNRLTESLNIFETIVNNRVFSNVSIILFLNKTDLLEEKVQVVSIKDYFLEFEGDPHCLRDVQKFLVECFRGKRRDQQQRPLYHHFTTAINTENIRLVFRDVKDTILHDNLKQLMLQ
notes: N-terminal region (αN helix) of rat Gαi1, amino acid residues 1-28; A few vector residues are likely left after PreScission cleavage of the pGEX-6P-1 product (surmise); also called Gα13iN・GDP; Gα13・GDP; source: E. coli BL21[DE3], purified (glutathione-sepharose 4B, cut off the column with PreScission Protease, dialysed; GDP added to 10 μM)
binds: [1] | [2] | [3]
